In patent publication US20060142193:

How the values were obtained:
TAT-SRF = TAT-SRF (UniProt P11831)
TAT-SRF245A/254A = TAT-SRF245A/254A (UniProt P11831)
[1] = biological target: T1, serum response factor (SRF) (UniProt P11831)
T1 sequence: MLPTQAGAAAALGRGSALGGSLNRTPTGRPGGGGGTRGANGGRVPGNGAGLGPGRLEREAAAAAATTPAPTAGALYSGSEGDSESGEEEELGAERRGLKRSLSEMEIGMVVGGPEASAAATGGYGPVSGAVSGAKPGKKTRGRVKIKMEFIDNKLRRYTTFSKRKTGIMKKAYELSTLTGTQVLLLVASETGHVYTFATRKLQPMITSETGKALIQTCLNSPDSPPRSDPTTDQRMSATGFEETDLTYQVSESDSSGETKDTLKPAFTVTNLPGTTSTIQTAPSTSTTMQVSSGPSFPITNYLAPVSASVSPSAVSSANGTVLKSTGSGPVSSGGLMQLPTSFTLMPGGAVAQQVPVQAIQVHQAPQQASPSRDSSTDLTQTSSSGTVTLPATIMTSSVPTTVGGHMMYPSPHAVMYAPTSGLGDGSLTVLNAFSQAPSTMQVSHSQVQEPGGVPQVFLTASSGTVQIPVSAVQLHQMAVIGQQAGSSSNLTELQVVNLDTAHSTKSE

[2] = biological target: endogenous ROCK1 of neonatal rat cardiomyocytes (UniProt Q63644)
endogenous ROCK1 of neonatal rat cardiomyocytes, sequence (Q63644 2-1369): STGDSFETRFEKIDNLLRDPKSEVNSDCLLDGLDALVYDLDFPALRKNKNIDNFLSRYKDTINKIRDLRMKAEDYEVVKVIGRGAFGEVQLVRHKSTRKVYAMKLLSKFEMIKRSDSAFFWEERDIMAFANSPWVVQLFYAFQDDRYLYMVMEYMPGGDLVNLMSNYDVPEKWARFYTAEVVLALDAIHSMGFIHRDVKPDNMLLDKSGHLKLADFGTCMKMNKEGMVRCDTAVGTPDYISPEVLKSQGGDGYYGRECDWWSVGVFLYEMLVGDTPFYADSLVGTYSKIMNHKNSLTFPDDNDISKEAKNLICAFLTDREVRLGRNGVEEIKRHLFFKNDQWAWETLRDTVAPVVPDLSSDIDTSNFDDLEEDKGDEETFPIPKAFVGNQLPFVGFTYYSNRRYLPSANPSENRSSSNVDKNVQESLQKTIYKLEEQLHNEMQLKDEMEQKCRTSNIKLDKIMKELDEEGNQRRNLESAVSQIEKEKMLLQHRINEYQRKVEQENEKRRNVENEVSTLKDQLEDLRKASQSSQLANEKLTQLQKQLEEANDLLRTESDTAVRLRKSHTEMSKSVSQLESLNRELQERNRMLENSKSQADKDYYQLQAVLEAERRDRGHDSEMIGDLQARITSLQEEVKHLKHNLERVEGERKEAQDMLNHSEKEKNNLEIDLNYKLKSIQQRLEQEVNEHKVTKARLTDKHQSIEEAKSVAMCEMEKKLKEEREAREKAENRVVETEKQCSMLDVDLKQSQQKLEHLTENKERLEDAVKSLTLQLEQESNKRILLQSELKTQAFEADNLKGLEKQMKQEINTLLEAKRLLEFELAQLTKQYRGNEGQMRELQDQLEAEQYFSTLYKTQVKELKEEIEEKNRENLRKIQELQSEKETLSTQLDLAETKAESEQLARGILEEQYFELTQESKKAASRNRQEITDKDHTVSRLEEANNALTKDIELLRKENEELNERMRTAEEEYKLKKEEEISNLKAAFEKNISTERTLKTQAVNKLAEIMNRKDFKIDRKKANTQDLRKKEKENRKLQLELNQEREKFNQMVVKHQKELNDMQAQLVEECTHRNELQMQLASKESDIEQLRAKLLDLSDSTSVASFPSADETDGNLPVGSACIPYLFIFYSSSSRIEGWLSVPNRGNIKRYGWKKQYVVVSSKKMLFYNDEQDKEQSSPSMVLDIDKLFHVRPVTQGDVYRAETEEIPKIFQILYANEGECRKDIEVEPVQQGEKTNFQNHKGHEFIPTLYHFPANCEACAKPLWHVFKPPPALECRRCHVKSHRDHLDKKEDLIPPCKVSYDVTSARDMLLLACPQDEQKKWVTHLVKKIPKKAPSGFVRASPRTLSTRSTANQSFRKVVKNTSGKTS

Substance | in vitro cleavage by recombinant caspase 3 (TAT-SRF) | in vitro cleavage by recombinant caspase 3 (TAT-SRF245A/254A) | in vitro cleavage of SRF [1] | 130 kDa ROCK1 cleavage fragment by Western blot of infected cardiomyocytes [2]
active caspase 3 (recombinant caspase 3) | only TAT-SRF was cleaved by caspase 3 | SRF245A/254A mutant was resistant to caspase 3 cleavage | Activated caspase 3 is able to cleave SRF in vitro | 
conditional caspase 3 (iCasp3) |  |  |  | The 130 kDa cleavage fragment of ROCK1 was detected in cardiomyocytes infected with Ad-G/iCasp3 and treated with CID
